The values below are quoted from earlier work in paper PMC6640714.

This data set addresses FcγRIa (Homo sapiens) (UniProt P12314). Briefly: given as Ka.

pKd: −log10 of the molar value.

Sequence of FcγRIa (Homo sapiens) (P12314 16-374): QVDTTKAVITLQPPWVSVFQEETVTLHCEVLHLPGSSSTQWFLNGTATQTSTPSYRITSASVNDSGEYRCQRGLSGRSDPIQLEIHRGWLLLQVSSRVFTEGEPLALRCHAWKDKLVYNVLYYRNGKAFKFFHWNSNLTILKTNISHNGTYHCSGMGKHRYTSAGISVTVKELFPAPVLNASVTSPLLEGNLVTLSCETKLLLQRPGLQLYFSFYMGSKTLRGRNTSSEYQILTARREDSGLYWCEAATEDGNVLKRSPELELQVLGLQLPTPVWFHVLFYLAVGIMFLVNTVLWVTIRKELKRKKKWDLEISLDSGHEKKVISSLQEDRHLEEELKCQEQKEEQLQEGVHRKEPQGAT
Sequence of IgG4 (P01861 whole entry): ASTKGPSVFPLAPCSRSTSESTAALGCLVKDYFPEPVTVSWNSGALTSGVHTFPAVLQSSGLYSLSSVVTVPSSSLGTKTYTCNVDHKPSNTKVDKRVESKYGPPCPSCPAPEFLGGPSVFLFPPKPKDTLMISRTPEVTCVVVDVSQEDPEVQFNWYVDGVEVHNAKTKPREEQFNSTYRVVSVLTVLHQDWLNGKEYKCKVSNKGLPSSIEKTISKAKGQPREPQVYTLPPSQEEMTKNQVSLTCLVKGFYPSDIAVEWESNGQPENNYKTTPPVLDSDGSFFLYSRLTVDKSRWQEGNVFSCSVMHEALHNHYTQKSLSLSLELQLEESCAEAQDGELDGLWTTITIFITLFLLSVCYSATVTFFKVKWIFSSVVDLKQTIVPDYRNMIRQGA

As for IgG4 (from UniProt P01861), the pKd is 7.53.

Broadly, the pKd is the negative decadic logarithm of the Kd, by convention in mol/L.
